In data set [1] the test system is Native MBP [MBP: P0AEX9].
The subject of data set [2] is T1, MBP-XB3.
T1 sequence: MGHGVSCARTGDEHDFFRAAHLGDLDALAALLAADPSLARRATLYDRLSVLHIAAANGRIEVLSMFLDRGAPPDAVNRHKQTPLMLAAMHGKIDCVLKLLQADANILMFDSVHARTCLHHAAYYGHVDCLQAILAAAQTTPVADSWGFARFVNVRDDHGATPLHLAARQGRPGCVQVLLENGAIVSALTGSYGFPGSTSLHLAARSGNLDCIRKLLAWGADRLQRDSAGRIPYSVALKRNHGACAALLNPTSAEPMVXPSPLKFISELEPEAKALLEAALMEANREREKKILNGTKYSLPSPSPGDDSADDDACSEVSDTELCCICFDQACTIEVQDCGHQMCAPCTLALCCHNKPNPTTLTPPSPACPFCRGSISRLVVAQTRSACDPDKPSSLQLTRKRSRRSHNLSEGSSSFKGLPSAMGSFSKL

1 substance from patent US6750057 can be followed below.

With GST-XA21, the “transphosphorylation assay with [gamma-32P]ATP” value is “GST-XA21 phosphorylated itself and MBP-XB3, but not MBP alone” in data set [1]; “GST-XA21 phosphorylated itself and MBP-XB3, but not MBP alone” in data set [2].
